From patent US20020034812

B1: purified murine caspase-1 (protein)
chain: NKEDGTFPGLTGTLKFCPLEKAQKLWKENPSEIYPIMNTTTRTRLALIICNTEFQHLSPRVGAQVDLREMKLLLEDLGYTVKVKENLTALEMVKEVKEFAACPEHKTSDSTFLVFMSHGIQEGICGTTYSNEVSDILKVDTIFQMMNTLKCPSLKDKPKVIIIQACRGEKQGVVLLKDSVRDSEEDFLTDAIFEDDGIKKAHIEKDFIAFCSSTPDNVSWRHPVRGSLFIESLIKHMKEYAWSCDLEDIFRKVRFSFEQPEFRLQMPTADRVTLTKRFYLFPGH
B2: purified murine caspase-3 (protein)
chain: SGIYLDSSYKMDYPEMGICIIINNKNFHKSTGMSSRSGTDVDAANLRETFMGLKYQVRNKNDLTREDILELMDSVSKEDHSKRSSFVCVILSHGDEGVIYGTNGPVELKKLTSFFRGDYCRSLTGKPKLFIIQACRGTELDCGIETDSGTDEEMACQKIPVEADFLYAYSTAPGYYSWRNSKDGSWFIQSLCSMLKLYAHKLEFMHILTRVNRKVATEFESFSLDSTFHAKKQIPCIVSMLTKELYFYH
B3: purified murine caspase-2 (protein)
chain: GPPCLLVKPCTPEFYQAHYQLAYRLQSQPRGLALVLSNVHFTGEKDLEFRSGGDVDHTTLVTLFKLLGYNVHVLHDQTAQEMQEKLQNFAQLPAHRVTDSCVVALLSHGVEGGIYGVDGKLLQLQEVFRLFDNANCPSLQNKPKMFFIQACRGDETDRGVDQQDGKNHTQSPGCEESDAGKEELMKMRLPTRSDMICGYACLKGNAAMRNTKRGSWYIEALTQVFSERACDMHVADMLVKVNALIKEREGYAPGTEFHRCKEMSEYCSTLCQQLYLFPGYPPT
B4: purified murine caspase-6 (protein)
chain: GFYKSREVFDPAEQYKMDHKRRGVALIFNHERFFWHLTLPERRGTNADRDNLTRRFSDLGFEVKCFNDLRAEELLLKIHEVSTSSHIDADCFICVFLSHGEGNHVYAYDAKIEIQTLTGLFKGDKCQSLVGKPKIFIIQACRGSQHDVPVVPLDMVDHQTDKLDNVTQVDAASVYTLPAGADFLMCYSVAEGYYSHRETVNGSWYIQDLCEMLARYGSSLEFTELLTLVNRKVSQRRVDFCKDPDAIGKKQVPCFASMLTKKLHFCPKPSK
B5: purified murine caspase-7 (protein)
chain: AKPDRSSIISSILLKKKRNASAGPVRTGRDRVPTYLYRMDFQKMGKCIIINNKNFDKATGMDVRNGTDKDAGALFKCFQNLGFEVTVHNDCSCAKMQDLLRKASEEDHSNSACFACVLLSHGEEDLIYGKDGVTPIKDLTAHFRGDRCKTLLEKPKLFFIQACRGTELDDGIQADSGPINDIDANPRNKIPVEADFLFAYSTVPGYYSWRNPGKGSWFVQALCSILNEHGKDLEIMQILTRVNDRVARHFESQSDDPRFNEKKQIPCMVSMLTKELYFSR
B6: purified murine granzyme B (protein)
chain: IIGGHEVKPHSRPYMALLSIKDQQPEAICGGFLIREDFVLTAAHCEGSIINVTLGAHNIKEQEKTQQVIPMVKCIPHPDYNPKTFSNDIMLLKLKSKAKRTRAVRPLNLPRRNVNVKPGDVCYVAGWGRMAPMGKYSNTLQEVELTVQKDRECESYFKNRYNKTNQICAGDPKTKRASFRGDSGGPLVCKKVAAGIVSYGYKDGSPPRAFTKVSSFLSWIKKTMKSS
B7: purified murine caspase-11 (protein)
chain: PGSHHGEANLEMEEPEESLNTLKLCSPEEFTRLCREKTQEIYPIKEANGRTRKALIICNTEFKHLSLRYGANFDIIGMKGLLEDLGYDVVVKEELTAEGMESEMKDFAALSEHQTSDSTFLVLMSHGTLHGICGTMHSEKTPDVLQYDTIYQIFNNCHCPGLRDKPKVIIVQACRGGNSGEMWIRESSKPQLCRGVDLPRNMEADAVKLSHVEKDFIAFYSTTPHHLSYRDKTGGSYFITRLISCFRKHACSCHLFDIFLKVQQSFEKASIHSQMPTIDRATLTRYFYLFPGN

Biological target: T1, 35S-methionine-labeled His6-tagged murine caspase-14
T1 chain: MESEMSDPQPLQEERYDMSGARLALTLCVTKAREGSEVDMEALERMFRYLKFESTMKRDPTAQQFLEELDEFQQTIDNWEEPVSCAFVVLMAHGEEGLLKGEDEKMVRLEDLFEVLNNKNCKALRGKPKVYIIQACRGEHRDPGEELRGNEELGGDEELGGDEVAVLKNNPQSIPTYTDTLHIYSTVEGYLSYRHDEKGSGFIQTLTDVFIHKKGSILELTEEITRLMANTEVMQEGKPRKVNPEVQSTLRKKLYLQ
B1 was tested, and the “in vitro cleavage of radiolabeled caspase-14” value was “none of the active enzyme preparations were able to cleave caspase-14”. With B2 the “in vitro cleavage of radiolabeled caspase-14” value was “none of the active enzyme preparations were able to cleave caspase-14”. In the case of B3, the “in vitro cleavage of radiolabeled caspase-14” value is reported as “none of the active enzyme preparations were able to cleave caspase-14”. B4 was tested, and the “in vitro cleavage of radiolabeled caspase-14” value was “none of the active enzyme preparations were able to cleave caspase-14”. For B5, the “in vitro cleavage of radiolabeled caspase-14” value was “none of the active enzyme preparations were able to cleave caspase-14”. With B6 the “in vitro cleavage of radiolabeled caspase-14” value was “none of the active enzyme preparations were able to cleave caspase-14”. B7 was tested, and the “in vitro cleavage of radiolabeled caspase-14” value was “none of the active enzyme preparations were able to cleave caspase-14”.

The molecules below were run against T2, radiolabeled murine caspase-3 (UniProt P70677).
T2 sequence: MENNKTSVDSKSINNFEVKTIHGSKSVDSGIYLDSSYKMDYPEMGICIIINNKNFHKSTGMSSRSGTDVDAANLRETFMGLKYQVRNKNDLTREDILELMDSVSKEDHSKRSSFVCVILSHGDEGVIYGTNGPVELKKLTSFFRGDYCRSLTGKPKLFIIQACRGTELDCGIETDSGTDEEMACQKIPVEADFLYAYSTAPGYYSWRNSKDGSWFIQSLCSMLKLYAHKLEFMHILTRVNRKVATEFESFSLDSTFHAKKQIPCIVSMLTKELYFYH
“murine caspase-8 (prodomain-deleted, lysate of E. coli expressing pLT-DpromCASP-8)” was tested, and the “efficiency of proteolysis by serial 1:5 dilution of caspase-8 lysate, caspase-3 against caspase-14 as substrate” value was “proteolytic activity of caspase-8 was at least 1000 times more efficient on caspase-3 than on murine caspase-14”.

These molecules were tested on T3, 35S-methionine-labeled His6-tagged murine caspase-14.
T3 sequence: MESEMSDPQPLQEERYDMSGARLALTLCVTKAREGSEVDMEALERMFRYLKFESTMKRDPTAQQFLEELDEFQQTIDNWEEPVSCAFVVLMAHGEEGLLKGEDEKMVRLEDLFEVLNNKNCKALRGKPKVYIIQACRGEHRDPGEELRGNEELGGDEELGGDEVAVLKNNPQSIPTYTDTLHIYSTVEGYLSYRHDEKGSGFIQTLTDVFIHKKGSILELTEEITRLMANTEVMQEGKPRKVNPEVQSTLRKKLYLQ
For “murine caspase-8 (prodomain-deleted, lysate of E. coli expressing pLT-DpromCASP-8)”, the “in vitro cleavage of 35S-methionine-labeled His6-tagged murine caspase-14, SDS-PAGE and autoradiography” value was “murine caspase-8 cleaved this 35.5 kDa murine caspase-14 weakly into 24 kDa (p18) and 11 kDa (p11) fragments”.
